Data published in patent publication US20230002480A1.

What was measured:
Experiment in all cases: cell-based or functional assay
[1] = biological target: HIV-1 Env of pseudovirus 6952.v1.c20 (HIV-1)
[2] = biological target: HIV-1 Env of pseudovirus Q23.17 (HIV-1)
[3] = biological target: HIV-1 Env of pseudovirus ZM53M.PB12 (HIV-1)
[4] = biological target: HIV-1 Env of pseudovirus CAP45.2.00.G3 (HIV-1)
[5] = biological target: HIV-1 Env of pseudovirus 3415.v1.c1 (HIV-1)
[6] = biological target: HIV-1 Env of pseudovirus Ce1086_B2 (HIV-1)
[7] = biological target: HIV-1 Env of pseudovirus RHPA4259.7 (HIV-1)
[8] = biological target: HIV-1 Env of pseudovirus 6811.v7.c18 (clade CD) (HIV-1)
[9] = biological target: HIV-1 Env of pseudovirus 6952.v1.c20 (clade CD) (HIV-1)
[10] = biological target: HIV-1 Env of pseudovirus 6540.v4.c1 (clade AC) (HIV-1)
[11] = biological target: HIV-1 Env of pseudovirus 0815.v3.c3 (clade ACD) (HIV-1)
[12] = biological target: HIV-1 Env of pseudovirus 3301.v1.c24 (clade AC) (HIV-1)
[13] = biological target: HIV-1 Env of pseudovirus 6545.v4.c1 (clade AC) (HIV-1)
[14] = biological target: HIV-1 Env of pseudovirus 6041.v3.c23 (clade AC) (HIV-1)
[15] = biological target: HIV-1 Env of pseudovirus 231965.c01 (clade D) (HIV-1)
[16] = biological target: HIV-1 Env of pseudovirus A07412M1.vrc12 (clade D) (HIV-1)
[17] = biological target: HIV-1 Env of pseudovirus X1632_S2_B10 (clade G) (HIV-1)
[18] = biological target: HIV-1 Env of pseudovirus 89-F1_2_25 (clade CD) (HIV-1)
[19] = biological target: HIV-1 Env of pseudovirus 3016.v5.c45 (clade D) (HIV-1)
[20] = biological target: HIV-1 Env of pseudovirus 6480.v4.c25 (clade CD) (HIV-1)
[21] = biological target: HIV-1 Env of pseudovirus 231966.c02 (clade D) (HIV-1)
[22] = biological target: HIV-1 Env of pseudovirus X2131_C1_B5 (clade G) (HIV-1)
[23] = biological target: HIV-1 Env of pseudovirus 3817.v2.c59 (clade CD) (HIV-1)
[24] = biological target: HIV-1 Env of pseudovirus 3103.v3.c10 (clade ACD) (HIV-1)
[25] = biological target: HIV-1 Env of pseudovirus P1981_C5_3 (clade G) (HIV-1)
[26] = biological target: MuLV envelope (negative control pseudovirus) (MuLV)

VRC07 (antibody)
IC50, titer in TZM.bl cells [1]: 0.064 µg/mL | IC80, titer in TZM.bl cells [1]: 0.181 µg/mL | neutralization IC50 [2]: 0.081 µg/mL | neutralization IC80 [2]: 0.236 µg/mL | neutralization IC50 [3]: 0.275 µg/mL | neutralization IC80 [3]: 1.29 µg/mL | neutralization IC50 [4]: 0.355 µg/mL | neutralization IC80 [4]: 3.09 µg/mL | neutralization IC50 [5]: 0.036 µg/mL | neutralization IC80 [5]: 0.152 µg/mL | neutralization IC50 [6]: 0.128 µg/mL | neutralization IC80 [6]: 0.84 µg/mL | neutralization IC50 [7]: 0.017 µg/mL | neutralization IC80 [7]: 0.048 µg/mL

PGT145 (antibody)
IC50, titer in TZM.bl cells [1]: 3.12 µg/mL | IC80, titer in TZM.bl cells [1]: > 50 µg/mL | IC50 [2]: 1.32 µg/mL | IC80 [2]: > 50 µg/mL | IC50 [3]: 0.367 µg/mL | IC80 [3]: 11.8 µg/mL | IC50 [4]: 0.001 µg/mL | IC80 [4]: 0.007 µg/mL | IC50 [6]: > 50 µg/mL | IC80 [6]: > 50 µg/mL | IC50 [7]: 0.029 µg/mL | IC80 [7]: 0.095 µg/mL

VRC01 (antibody)
IC50, titer in TZM.bl cells [1]: 0.04 µg/mL | IC80, titer in TZM.bl cells [1]: 0.12 µg/mL | IC50, titer in TZM.bl cells [2]: 0.09 µg/mL | IC80, titer in TZM.bl cells [2]: 0.261 µg/mL | IC50, titer in TZM.bl cells [3]: 1.3 µg/mL | IC80, titer in TZM.bl cells [3]: 4 µg/mL | IC80, titer in TZM.bl cells [4]: > 50 µg/mL | IC50, titer in TZM.bl cells [5]: 0.06 µg/mL | IC80, titer in TZM.bl cells [5]: 0.15 µg/mL | IC50, titer in TZM.bl cells [6]: 0.42 µg/mL | IC80, titer in TZM.bl cells [6]: 1.44 µg/mL | IC50, titer in TZM.bl cells [7]: 0.06 µg/mL | IC80, titer in TZM.bl cells [7]: 0.185 µg/mL

PGT121 (antibody)
IC50 [1]: 0.056 µg/mL | IC80 [1]: 0.42 µg/mL | IC50 [2]: < 0.001 µg/mL | IC80 [2]: 0.005 µg/mL | IC50 [3]: < 0.001 µg/mL | IC80 [3]: 0.004 µg/mL | IC50 [4]: 1.63 µg/mL | IC80 [4]: > 50 µg/mL | IC50 [6]: < 0.001 µg/mL | IC80 [6]: < 0.001 µg/mL | IC80 [7]: 0.035 µg/mL

N49P7 (antibody)
IC50, neutralization titer in TZM.bl cells [8]: 0.229 µg/mL | IC80, neutralization titer in TZM.bl cells [8]: 0.992 µg/mL | MPI, neutralization in TZM.bl cells [8]: 100 | IC50, neutralization titer in TZM.bl cells [9]: 18.4 µg/mL | IC80, neutralization titer in TZM.bl cells [9]: 38.9 µg/mL | MPI, neutralization in TZM.bl cells [9]: 91 | neutralization IC50 [2]: 0.052 µg/mL | neutralization IC80 [2]: 0.21 µg/mL | neutralization MPI [2]: 100 | IC50, neutralization titer in TZM.bl cells [10]: 11.7 µg/mL | IC80, neutralization titer in TZM.bl cells [10]: 33.2 µg/mL | MPI, neutralization in TZM.bl cells [10]: 92 | IC50, neutralization titer in TZM.bl cells [11]: 0.016 µg/mL | IC80, neutralization titer in TZM.bl cells [11]: 0.053 µg/mL | MPI, neutralization in TZM.bl cells [11]: 100 | IC50, neutralization titer in TZM.bl cells [12]: 0.025 µg/mL | IC80, neutralization titer in TZM.bl cells [12]: 0.069 µg/mL | MPI, neutralization in TZM.bl cells [12]: 100 | IC50, neutralization titer in TZM.bl cells [13]: 2 µg/mL | IC80, neutralization titer in TZM.bl cells [13]: 14.7 µg/mL | MPI, neutralization in TZM.bl cells [13]: 96 | IC50, neutralization titer in TZM.bl cells [14]: 0.047 µg/mL | IC80, neutralization titer in TZM.bl cells [14]: 0.222 µg/mL | MPI, neutralization in TZM.bl cells [14]: 100 | neutralization IC50 [3]: 0.251 µg/mL | neutralization IC80 [3]: 0.8 µg/mL | neutralization MPI [3]: 100 | neutralization IC50 [4]: 0.06 µg/mL | neutralization IC80 [4]: 0.29 µg/mL | neutralization MPI [4]: 100 | IC50, neutralization titer in TZM.bl cells [15]: 0.054 µg/mL | IC80, neutralization titer in TZM.bl cells [15]: 0.193 µg/mL | MPI, neutralization in TZM.bl cells [15]: 100 | neutralization IC50 [5]: 0.16 µg/mL | neutralization IC80 [5]: 0.55 µg/mL | neutralization MPI [5]: 100 | IC50, neutralization titer in TZM.bl cells [16]: 0.108 µg/mL | IC80, neutralization titer in TZM.bl cells [16]: 0.645 µg/mL | MPI, neutralization in TZM.bl cells [16]: 100 | IC50, neutralization titer in TZM.bl cells [17]: 12 µg/mL | IC80, neutralization titer in TZM.bl cells [17]: 40.4 µg/mL | MPI, neutralization in TZM.bl cells [17]: 85 | IC50, neutralization titer in TZM.bl cells [18]: 21.6 µg/mL | IC80, neutralization titer in TZM.bl cells [18]: > 50 µg/mL | MPI, neutralization in TZM.bl cells [18]: 80 | neutralization IC50 [6]: 0.089 µg/mL | neutralization IC80 [6]: 0.568 µg/mL | neutralization MPI [6]: 100 | IC50, neutralization titer in TZM.bl cells [19]: 0.221 µg/mL | IC80, neutralization titer in TZM.bl cells [19]: 1.04 µg/mL | MPI, neutralization in TZM.bl cells [19]: 100 | neutralization IC50 [7]: 0.083 µg/mL | neutralization IC80 [7]: 0.246 µg/mL | neutralization MPI [7]: 100 | IC50, neutralization titer in TZM.bl cells [20]: 0.031 µg/mL | IC80, neutralization titer in TZM.bl cells [20]: 0.113 µg/mL | MPI, neutralization in TZM.bl cells [20]: 100 | IC50, neutralization titer in TZM.bl cells [21]: 0.102 µg/mL | IC80, neutralization titer in TZM.bl cells [21]: 0.43 µg/mL | MPI, neutralization in TZM.bl cells [21]: 100 | IC50, neutralization titer in TZM.bl cells [22]: 0.081 µg/mL | IC80, neutralization titer in TZM.bl cells [22]: 0.273 µg/mL | MPI, neutralization in TZM.bl cells [22]: 100 | IC50, neutralization titer in TZM.bl cells [23]: 0.716 µg/mL | IC80, neutralization titer in TZM.bl cells [23]: 3.73 µg/mL | MPI, neutralization in TZM.bl cells [23]: 99 | IC50, neutralization titer in TZM.bl cells [24]: 0.158 µg/mL | IC80, neutralization titer in TZM.bl cells [24]: 0.509 µg/mL | MPI, neutralization in TZM.bl cells [24]: 100 | IC50, neutralization titer in TZM.bl cells [25]: 0.113 µg/mL | IC80, neutralization titer in TZM.bl cells [25]: 0.274 µg/mL | MPI, neutralization in TZM.bl cells [25]: 100 | IC50, neutralization titer in TZM.bl cells [26]: > 50 µg/mL | IC80, neutralization titer in TZM.bl cells [26]: > 50 µg/mL | MPI, neutralization in TZM.bl cells [26]: 9

8ANC195 (antibody)
IC50, titer in TZM.bl cells [1]: 1.38 µg/mL | IC80, titer in TZM.bl cells [1]: 7.22 µg/mL | neutralization IC50 [2]: 2.55 µg/mL | neutralization IC80 [2]: 2.55 µg/mL | neutralization IC50 [3]: > 30 µg/mL | neutralization IC80 [3]: > 30 µg/mL | neutralization IC50 [4]: 28.3 µg/mL | neutralization IC80 [4]: > 50 µg/mL | neutralization IC50 [6]: 4.42 µg/mL | neutralization IC80 [6]: 19.1 µg/mL | neutralization IC50 [7]: 0.34 µg/mL | neutralization IC80 [7]: 1.56 µg/mL
